Paper PMC12216891 (Scientific Reports, 2025)

Biological target: the molecule itself
Test: cryo-EM structure

B1: Thermochromatium tepidum form-IAq RuBisCO large subunit (RbcL) (natural protein, UniProt A0A6I6DX30 1-472, looked up)
chain: MAKTYSAGVKEYRETYWMPNYTPKDTDILACFKITPQPGVPREEAAAAVAAESSTGTWTTVWTDLLTDLDYYKGRAYAIEDVPGDDTCFYAFIAYPIDLFEEGSVVNVFTSLVGNVFGFKAVRALRLEDVRFPIAYVMTCNGPPHGIQVERDILNKYGRPLLGCTIKPKLGLSAKNYGRAVYECLRGGLDFTKDDENVNSQPFMRWRQRFDFVMEAIDKAERETGERKGHYLNVTAPTPEEMYKRAEYAKEIGAPIIMHDYITGGFCANTGLAQWCRNNGVLLHIHRAMHAVLDRNPHHGIHFRVLTKILRLSGGDHLHTGTVVGKLEGDRQATLGWIDLLRESYVKEDRSRGIFFDQDWGAMPGAFAVASGGIHVWHMPALVTIFGDDSVLQFGGGTLGHPWGNAAGACANRVALEACIEARNQGIPIEKEGKEVLTKAAAHSPELKIAMETWKEIKFEFDSVDKLDVAHK
stoichiometry N: 8
